# ± gives the uncertainty stated by the source.
# B1: WW domain-containing transcription regulator protein 1, residues 116 to 162; numbered along this chain, Q9GZV5 (parent)
# chain: QSYDVTDELPLPPGWEMTFTATGQRYFLNHIEKITTWQDPRKAMNQP
# Variants of: B1
# Test: abundance fitness (aPCA) (normalised: wild type 0, dead -1); higher = more abundant; growth selection in yeast, the domain comes from the species named
# Settings: Homo sapiens
row,Variant,abundance fitness
1,F27P,-0.946 ± 0.13
2,F27L,-0.841 ± 0.046
3,F27S,-0.579 ± 0.057
4,F27H,-0.707 ± 0.2
5,F27G,-0.613 ± 0.048
6,F27I,-0.935 ± 0.066
7,F27W,-0.13 ± 0.049
8,F27R,-0.761 ± 0.033
9,F27N,-0.859 ± 0.096
10,T20G,-0.381 ± 0.03
11,T20E,-0.387 ± 0.054
12,T20C,-0.356 ± 0.029
13,T20S,-0.115 ± 0.041
14,T20P,-0.937 ± 0.13
15,T20M,-0.295 ± 0.076
16,T20L,-0.519 ± 0.045
17,T20Q,-0.924 ± 0.15
18,T20Y,-0.796 ± 0.038
19,Q46L,-0.022 ± 0.033
20,Q46N,-0.067 ± 0.046
21,Q46P,0.026 ± 0.037
22,Q46E,0.037 ± 0.032
23,Q46W,-0.046 ± 0.041
24,Q46K,-0.164 ± 0.058

row,Variant,abundance fitness
1,Q46A,-0.138 ± 0.039
2,Q46H,-0.394 ± 0.063
3,Q46R,-0.156 ± 0.035
4,Q46C,-0.021 ± 0.027
5,T6I,-0.032 ± 0.046
6,T6V,-0.06 ± 0.026
7,T6C,-0.071 ± 0.056
8,T6A,-0.196 ± 0.037
9,T6F,-0.074 ± 0.052
10,T6L,-0.104 ± 0.029
11,V5C,-0.126 ± 0.032
12,V5T,0.011 ± 0.044
13,V5K,-0.023 ± 0.038
14,V5N,-0.033 ± 0.049
15,V5E,-0.088 ± 0.042
16,V5H,-0.231 ± 0.059
17,N29S,-0.357 ± 0.035
18,N29W,-0.965 ± 0.093
19,N29F,-1.01 ± 0.082
20,N29E,-0.931 ± 0.063
21,N29R,-0.763 ± 0.048
22,N29C,-1.04 ± 0.13
23,A21R,-0.109 ± 0.036
24,A21P,-0.088 ± 0.05

row,Variant,abundance fitness
1,A21G,-0.072 ± 0.025
2,A21C,-0.167 ± 0.05
3,A21S,-0.014 ± 0.028
4,A21Y,-0.299 ± 0.031
5,S2F,-0.035 ± 0.055
6,S2G,-0.034 ± 0.027
7,S2L,-0.093 ± 0.04
8,S2I,-0.026 ± 0.071
9,S2E,-0.274 ± 0.055
10,S2Q,-0.167 ± 0.065
11,S2K,-0.074 ± 0.065
12,S2V,-0.148 ± 0.044
13,R25S,-0.203 ± 0.04
14,R25G,-0.37 ± 0.03
15,R25W,-0.64 ± 0.031
16,R25N,-0.448 ± 0.074
17,D39G,-0.747 ± 0.055
18,D39E,-0.536 ± 0.077
19,D39L,-0.599 ± 0.042
20,D39S,-0.719 ± 0.035
21,D39Q,-0.911 ± 0.16
22,D39K,-0.736 ± 0.077
23,Q1E,-0.182 ± 0.062
24,Q1T,-0.492 ± 0.18

row,Variant,abundance fitness
1,Q24T,-0.178 ± 0.04
2,Q24M,-0.489 ± 0.06
3,Q24P,-0.846 ± 0.075
4,Q24I,-0.226 ± 0.11
5,Q24C,-0.305 ± 0.056
6,Q24G,-0.286 ± 0.041
7,Q24H,-0.552 ± 0.1
8,Q24W,-0.82 ± 0.045
9,Q24E,0.185 ± 0.052
10,Q24F,-0.623 ± 0.037
11,Q24V,-0.12 ± 0.036
12,K42Y,-0.164 ± 0.037
13,K42V,-0.166 ± 0.045
14,K42D,-0.26 ± 0.061
15,K42C,-0.097 ± 0.048
16,K42I,-0.038 ± 0.036
17,K42T,-0.073 ± 0.042
18,K42F,-0.128 ± 0.061
19,K42L,-0.111 ± 0.034
20,K42N,0.045 ± 0.05
21,K42H,-0.061 ± 0.057
22,P10L,-0.25 ± 0.024
23,P10V,-0.188 ± 0.028
24,P10R,-0.224 ± 0.028

row,Variant,abundance fitness
1,P10T,-0.045 ± 0.035
2,P10N,-0.129 ± 0.032
3,P10E,-0.058 ± 0.027
4,P10Q,-0.123 ± 0.048
5,P10Y,-0.351 ± 0.042
6,P10M,-0.212 ± 0.036
7,P10C,-0.374 ± 0.044
8,E8P,-0.09 ± 0.039
9,E8Y,-0.248 ± 0.067
10,E8R,-0.109 ± 0.04
11,E8T,0.01 ± 0.047
12,E8D,-0.084 ± 0.056
13,T18N,-0.159 ± 0.053
14,T18W,-0.245 ± 0.036
15,T18G,0.018 ± 0.028
16,T18V,-0.035 ± 0.035
17,T18P,-0.85 ± 0.081
18,T18D,-0.018 ± 0.034
19,T18L,-0.047 ± 0.037
20,T18R,0.094 ± 0.031
21,T18C,-0.009 ± 0.036
22,T18A,0.023 ± 0.037
23,L9D,0.028 ± 0.025
24,L9C,-0.103 ± 0.04

row,Variant,abundance fitness
1,L9W,-0.087 ± 0.032
2,L9Y,-0.035 ± 0.037
3,L9S,-0.003 ± 0.038
4,L9M,-0.009 ± 0.029
5,L9A,0.044 ± 0.039
6,L9R,0.027 ± 0.029
7,L9F,-0.082 ± 0.041
8,L9V,0.05 ± 0.034
9,A43V,-0.025 ± 0.039
10,A43S,0.01 ± 0.04
11,A43M,-0.038 ± 0.059
12,A43W,0.086 ± 0.048
13,A43I,-0.073 ± 0.067
14,T36W,-0.986 ± 0.066
15,T36Q,-0.376 ± 0.051
16,T36V,-0.736 ± 0.04
17,T36R,-0.858 ± 0.058
18,T36F,-1.05 ± 0.28
19,T36G,-0.775 ± 0.038
20,T36E,-0.722 ± 0.031
21,T36I,-0.831 ± 0.088
22,T36K,-0.954 ± 0.12
23,T36M,-0.532 ± 0.033
24,N45C,-0.089 ± 0.037

row,Variant,abundance fitness
1,N45K,-0.052 ± 0.033
2,N45H,-0.09 ± 0.036
3,N45A,-0.018 ± 0.025
4,N45V,-0.056 ± 0.024
5,N45Q,-0.223 ± 0.064
6,N45T,-0.044 ± 0.025
7,Y3Q,-0.2 ± 0.031
8,Y3I,0.274 ± 0.13
9,Y3L,-0.323 ± 0.48
10,Y3V,-0.472 ± 0.48
11,Y3C,0.262 ± 0.1
12,K33N,-0.041 ± 0.027
13,K33Y,-0.733 ± 0.084
14,K33L,-0.558 ± 0.028
15,K33T,-0.483 ± 0.031
16,K33Q,-0.139 ± 0.038
17,K33P,-0.942 ± 0.066
18,K33I,-1.01 ± 0.083
19,K33R,-0.063 ± 0.025
20,I31F,-0.14 ± 0.16
21,I31R,-0.06 ± 0.06
22,I31Y,-0.166 ± 0.1
23,I31T,-0.011 ± 0.083

# — the Human Domainome abundance scans (Beltran et al. 2025)
